Laboratory results taken from US20100034826A1 (Bristol-Myers Squibb, published 2010).
Where a chain is given by its changes, count along the chain named. One block for each binder: values may come before it.

Legend:
[1] = molecular target: T1, human PTK7, full length, on the cell surface (human, UniProt Q13308 31-1070); assay: cell-based or functional assay
T1 sequence: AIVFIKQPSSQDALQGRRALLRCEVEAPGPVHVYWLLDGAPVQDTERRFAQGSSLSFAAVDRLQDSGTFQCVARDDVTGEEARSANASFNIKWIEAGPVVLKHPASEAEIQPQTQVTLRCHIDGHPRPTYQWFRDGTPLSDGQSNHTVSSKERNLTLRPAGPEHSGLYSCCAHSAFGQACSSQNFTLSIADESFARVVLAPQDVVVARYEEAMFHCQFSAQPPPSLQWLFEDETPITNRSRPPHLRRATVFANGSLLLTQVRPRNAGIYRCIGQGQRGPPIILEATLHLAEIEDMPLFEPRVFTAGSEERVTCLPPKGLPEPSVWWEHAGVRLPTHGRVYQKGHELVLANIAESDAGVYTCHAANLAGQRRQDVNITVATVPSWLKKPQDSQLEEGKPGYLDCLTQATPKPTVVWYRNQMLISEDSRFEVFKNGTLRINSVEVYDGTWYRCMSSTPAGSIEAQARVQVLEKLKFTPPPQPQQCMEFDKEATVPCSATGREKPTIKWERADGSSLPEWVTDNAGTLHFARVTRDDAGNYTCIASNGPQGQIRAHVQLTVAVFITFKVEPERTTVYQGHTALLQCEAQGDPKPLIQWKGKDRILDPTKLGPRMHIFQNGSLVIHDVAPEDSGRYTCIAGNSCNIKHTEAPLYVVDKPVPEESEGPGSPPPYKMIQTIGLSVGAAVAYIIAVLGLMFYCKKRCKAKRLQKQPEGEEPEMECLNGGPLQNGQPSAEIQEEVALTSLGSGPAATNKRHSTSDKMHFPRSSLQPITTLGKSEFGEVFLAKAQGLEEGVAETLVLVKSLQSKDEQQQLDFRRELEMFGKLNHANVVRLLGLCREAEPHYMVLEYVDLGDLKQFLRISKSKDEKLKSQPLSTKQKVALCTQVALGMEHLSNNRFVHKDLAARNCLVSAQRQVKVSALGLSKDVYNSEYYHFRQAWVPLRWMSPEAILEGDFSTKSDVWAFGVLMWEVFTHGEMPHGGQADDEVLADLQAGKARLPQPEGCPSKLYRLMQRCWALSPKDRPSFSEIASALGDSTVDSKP

[2] = molecular target: T1, human PTK7, full length, on the cell …; assay: flow cytometry on Wilms' tumor G-401 cells, antibody from 30 µg/ml in 1:10 dilutions
Procedure: The nephroblastoma Wilms' tumor cell line G-401 (ATCC Acc No. CRL-1441) was tested for binding of the HuMAb anti-PTK7 human monoclonal antibodies 12C6 and 7C8 at different concentrations. Binding of the anti-PTK7 human monoclonal antibodies was assessed by incubating 1×10⁵ cells with antibody at a starting concentration of 30 μg/ml and serially diluting the antibody at a 1:10 dilution. The cells were washed and binding was detected with a PE-labeled anti-human IgG Ab. Flow cytometric analyses were performed using a FACScan flow cytometry (Becton Dickinson, San Jose, Calif.). The anti-PTK7 monoclonal antibodies 12C6 and 7C8 bound to the nephroblastoma Wilms' tumor cell line in a concentration dependent manner, as measured by the mean fluorescent intensity (MFI) of staining.

[3] = molecular target: T2, recombinant extracellular domain of PTK7 (human, UniProt Q13308 31-704); assay: ELISA on recombinant extracellular domain of PTK7, antibody from 10 µg/ml in 1:2 dilutions
T2 construct: also called PTK7 extracellular domain
T2 sequence: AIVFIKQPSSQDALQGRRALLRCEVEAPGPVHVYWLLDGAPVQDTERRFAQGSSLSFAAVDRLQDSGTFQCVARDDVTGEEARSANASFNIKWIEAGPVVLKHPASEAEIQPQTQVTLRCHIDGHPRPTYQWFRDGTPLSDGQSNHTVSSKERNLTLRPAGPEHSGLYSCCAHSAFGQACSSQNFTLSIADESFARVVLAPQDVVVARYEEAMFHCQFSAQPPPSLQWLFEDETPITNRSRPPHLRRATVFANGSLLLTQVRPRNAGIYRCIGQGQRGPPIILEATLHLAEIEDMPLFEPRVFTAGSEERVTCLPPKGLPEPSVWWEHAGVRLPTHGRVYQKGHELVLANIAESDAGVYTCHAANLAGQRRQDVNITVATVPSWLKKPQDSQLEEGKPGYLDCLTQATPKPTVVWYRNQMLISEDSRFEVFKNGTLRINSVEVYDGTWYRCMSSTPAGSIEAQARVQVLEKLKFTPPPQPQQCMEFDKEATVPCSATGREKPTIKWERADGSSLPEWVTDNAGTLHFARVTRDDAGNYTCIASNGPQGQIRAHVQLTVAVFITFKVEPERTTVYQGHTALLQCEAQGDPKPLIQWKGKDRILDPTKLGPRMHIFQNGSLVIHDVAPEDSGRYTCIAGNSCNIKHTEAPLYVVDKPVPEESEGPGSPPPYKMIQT
Procedure: (§1) Recombinant extracellular domain of PTK7 was tested for binding against the anti-PTK7 human monoclonal antibodies 3G8, 4D5, 12C6 and 12C6a at different concentrations. Standard ELISA procedures were performed. The anti-PTK7 human monoclonal antibodies were added at a starting concentration of 10 μg/ml and serially diluted at a 1:2 dilution. Goat-anti-human IgG (kappa chain-specific) polyclonal antibody conjugated with horseradish peroxidase (HRP) was used as secondary antibody. Each of the anti-PTK7 human monoclonal antibodies 3G8, 4D5, 12C6 and 12C6a bound to PTK7.

[4] = molecular target: T1, human PTK7, full length, on the cell …; assay: flow cytometry on cancer cell lines that express cell surface PTK7, antibody at 10 µg/ml, MFI
Procedure: Binding of the 3G8, 12C6a, 4D5 and 12C6 anti-PTK7 human monoclonal antibodies to a panel of cancer cell lines was assessed by incubating cancer cell lines with anti-PTK7 human monoclonal antibodies at a concentration of 10 μg/ml. […] An isotype control antibody was used as a negative control. The cells were washed and binding was detected with a FITC-labeled anti-human IgG Ab. Flow cytometric analyses were performed using a FACScan flow cytometry (Becton Dickinson, San Jose, Calif.).

[5] = molecular target: T2, recombinant extracellular domain of PTK7; assay: ELISA on recombinant PTK7 extracellular domain, HRP anti-human IgG (kappa) detection
Procedure: as §1

B2: anti-PTK7 human monoclonal antibody 4D5 (antibody, V domains shown)
VH: QVQLVESGGGVVQPGRSLRLSCAASGFTFSSYAFHWVRQAPGKGLEWVAVISYDGSIKYYADSVKGRFTISRDNSKNTLYLQMNSLRAEDTAVYYCARTYYFDYWGQGTLVTVSS
VL: EIVLTQSPDFQSVTPKEKVTITCRASQSIGSSLHWYQQKPDQSPKLLIKYASQSFSGVPSRFSGSGSGTDFTLTINSLEAEDAAAYYCHQSSSLPITFGQGTRLEIK
EC50, Hum-Zap internalization assay (3H-thymidine incorporation), Wilms' tumor cells [1]: 0.252 nM

B5: anti-PTK7 human monoclonal antibody 12C6 (antibody, V domains shown)
VH: EVQLVQSGGGLVHPGGSLRLSCAGSGFTFSTYLMYWVRQAPGKTLEWVSAIGSGGDTYYADSVKGRFTISRDNAKNSLYLQMNSLRAEDMAVYYCARGLGYWGQGTLVTVSS
VL: not shown
notes: Human IgG with kappa light chain, made by a hybridoma
EC50 (read off the curve) [5]: ~0.6 µg/mL
EC50, Hum-Zap internalization assay (3H-thymidine incorporation), A-431 cells [1]: 166 nM
EC50, Hum-Zap internalization assay (3H-thymidine incorporation), PC3 tumor cells [1]: 0.318 nM
EC50, Hum-Zap internalization assay (3H-thymidine incorporation), Wilms' tumor cells [1]: 0.205 nM
EC50 [2]: 4.04 nM

The next lines start with the values.

EC50, Hum-Zap internalization assay (3H-thymidine incorporation), A-431 cells [1]: 0.183 nM
EC50, Hum-Zap internalization assay (3H-thymidine incorporation), PC3 tumor cells [1]: 0.265 nM
EC50, Hum-Zap internalization assay (3H-thymidine incorporation), Wilms' tumor cells [1]: 0.179 nM
EC50 [2]: 3.43 nM
B1: anti-PTK7 human monoclonal antibody 7C8 (antibody, V domains shown)
VH: QVQLVESGGGVVQPGRSLRLSCAASGFTFSSYGMHWVRQAPGKGLEWVAVIWDDGSNKYYVDSVKGRFTISRDNSKNTLYLQMNSLRAEDTAVYYCARDDYYGSGSFNSYYGTDVWGQGTTVTVSS
VL: EIVLTQSPATLSLSPGERATLSCRASQSVSIYLAWYQQKPGQAPRLLIYDASNRATGIPARFSGSGSGTDFTLTISSLEPEDFAVYYCQQRSNWPPFTFGPGTKVDIK
notes: Human IgG with kappa light chain, made by a hybridoma; also called 7CS

EC50, Hum-Zap internalization assay (3H-thymidine incorporation), Wilms' tumor cells [1]: 0.644 nM
B3: anti-PTK7 human monoclonal antibody 3G8 (antibody, V domains shown)
VH: QVQLVESGGGVVQPGRSLRLSCAASGFIFSNYAMHWVRQAPGKGLEWVAVISYDGNNKYYADSVKGRFTISRDNSKNTLYLQMNSLRAEDTAVYYCAREVWSIDNWGQGTLVTVSS
VL: DIQMTQSPSSLSASVGDRVTITCRASQGISSWLAWYQQKPEKAPKSLIYAASSLQSGVPSRFSGSGSGTDFTLTISSLQPEDFATYYCQQYNSYPRTFGQGTKVEIK

binding result [3]: binds
binding result [4]: binds
B4: anti-PTK7 human monoclonal antibody 12C6a (antibody, V domains shown)
VH: B5 VH
VL: B3 VL with R96Y, V104L
notes: Human IgG with kappa light chain, made by a hybridoma; Same VH as 12C6
